From patent US20250011363A1, “OPTIMIZED SHORTENED PEPTIDE THAT BINDS TO ACETYLCHOLINE RECEPTOR, AND USE THEREOF” (SKINMED CO., LTD., priority 2021, published 2025)

Target: acetylcholine receptor
Test: SPR, receptor immobilized, peptide 10 uM

| Binder | Binding affinity (RU) |
| --- | --- |
| KKDHK [5mer-778] | 24 RU |
| KDNIR [5mer-787] | 17 RU |
| KKWQQR [6mer-1-153] | 146 RU |
| RACFR [5mer-1082] | 11 RU |
| KEAPK [5mer-794] | 20 RU |
| KRQVQR [6mer-1-140] | 148 RU |
| RPNVR [5mer-1081] | 13 RU |
| KRGRRR [6mer-1-146] | 139 RU |
| KRRFLR [6mer-1-139] | 122 RU |
| RRSVTK [6mer-1-156] | 154 RU |
| KPTIR [5mer-785] | 31 RU |
| KKPHR [5mer-793] | 19 RU |
| KAEKR [5mer-1095] | 27 RU |
| KPDIR [5mer-1097] | 28 RU |
| KAKKK [5mer-1088] | 16 RU |
| RKLYQK [6mer-1-141] | 141 RU |
| RRRYQR [6mer-1-167] | 122 RU |
| KRRYCK [6mer-1-161] | 139 RU |
| RMEKK [5mer-792] | 31 RU |
| RRLIYR [6mer-1-158] | 131 RU |
| KPMVK [5mer-1092] | 12 RU |
| RPTDK [5mer-1096] | 15 RU |
| KKVYYK [6mer-1-142] | 123 RU |
| RKLRCR [6mer-1-148] | 146 RU |
| KKSLLR [6mer-1-157] | 123 RU |
| KKQIQR [6mer-1-147] | 125 RU |
| RIWDR [5mer-1086] | 19 RU |

| Binder | Binding affinity (RU) |
| --- | --- |
| RTHDR [5mer-1084] | 21 RU |
| KKWFTK [6mer-1-165] | 148 RU |
| RACEK [5mer-784] | 21 RU |
| KFEKK [5mer-1076] | 21 RU |
| RRWVCK [6mer-1-149] | 131 RU |
| KRVIRR [6mer-1-152] | 154 RU |
| RRWLYK [6mer-1-136] | 148 RU |
| RKRQCR [6mer-1-150] | 142 RU |
| RRLFRR [6mer-1-137] | 121 RU |
| KANAR [5mer-782] | 32 RU |
| KFSVR [5mer-1083] | 31 RU |
| RKHIK [5mer-1075] | 26 RU |
| RETMK [5mer-798] | 13 RU |
| KNWVR [5mer-796] | 17 RU |
| RKVFQR [6mer-1-145] | 141 RU |
| KYPPR [5mer-779] | 21 RU |
| REEDK [5mer-1093] | 32 RU |
| KYHGK [5mer-788] | 16 RU |
| RKRYTR [6mer-1-144] | 148 RU |
| RRWYSK [6mer-1-166] | 148 RU |
| KRLQTK [6mer-1-163] | 147 RU |
| KTEHR [5mer-1091] | 29 RU |
| KKSLSK [6mer-1-162] | 142 RU |
| REAGK [5mer-790] | 33 RU |
| KISGK [5mer-1090] | 31 RU |
| KCKVR [5mer-783] | 29 RU |
| KRGVRR [6mer-1-151] | 145 RU |

| Binder | Binding affinity (RU) |
| --- | --- |
| KTHHR [5mer-1089] | 29 RU |
| KADMK [5mer-1077] | 12 RU |
| RYSMK [5mer-1094] | 15 RU |
| RFNKK [5mer-786] | 29 RU |
| RYTHK [5mer-1080] | 25 RU |
| KYTGR [5mer-1079] | 31 RU |
| KEAWK [5mer-1078] | 19 RU |
| RDSHK [5mer-780] | 27 RU |
| RTKKR [5mer-795] | 20 RU |
| RCDFR [5mer-776] | 17 RU |
| KRGVLR [6mer-1-143] | 145 RU |
| KKKKR [5mer-1087] | 11 RU |
| KRLRRK [6mer-1-159] | 139 RU |
| RRVRSR [6mer-1-155] | 127 RU |
| RYNWK [5mer-777] | 28 RU |
| RKVVTR [6mer-1-138] | 124 RU |
| RRVIQR [6mer-1-160] | 149 RU |
| RTTER [5mer-1085] | 14 RU |
| KFWIR [5mer-789] | 12 RU |
| RIDPR [5mer-781] | 28 RU |
| KTKMR [5mer-791] | 26 RU |
| KKLYSR [6mer-1-154] | 153 RU |
| RFHGR [5mer-1098] | 31 RU |
| KETHK [5mer-797] | 15 RU |
| KRGQYK [6mer-1-164] | 145 RU |
